Measurements published in patent publication US20240199758A1, “METHOD FOR ALLOWING IMMUNE CELLS INFILTRATION IN TUMORS” (Alethia Biotherapeutics Inc., priority 2021, published 2024).
Several values for one entry are separate records, joined by “and”; a condition that tells them apart may be missing. Equal entries are not always repeated. Entries after “also recorded” stand apart in the source; their conditions may differ.

Tests used:
[1] = Non-clinical pharmacokinetics, single and repeat-dose studies in rats; assay type: in vivo, Sprague-Dawley rats
Description: (§1) There was an approximate 70% increase in systemic exposure following repeated dosing from Day 1 to Day 26 which is consistent with the elimination half-life of AB-16B5 and the dosing intervals. […] The sCLU concentrations were generally back to their baseline levels after 3 to 5 days. The concurrent decrease in sCLU concentrations immediately following dosing with AB-16B5 is consistent with an antigen-sink phenomenon.

[2] = Non-clinical pharmacokinetics, single and repeat-dose studies in monkeys; assay type: in vivo, Rhesus monkeys
Description: as §1

sCLU = target: T1, sCLU (Macaca mulatta, UniProt F6S885); test: sCLU serum concentrations after single dose administration; assay type: in vivo; settings: Rhesus monkeys
T1 construct: from tissue; host or cells: serum of Rhesus monkeys (in vivo)
T1 sequence (F6S885 22-448): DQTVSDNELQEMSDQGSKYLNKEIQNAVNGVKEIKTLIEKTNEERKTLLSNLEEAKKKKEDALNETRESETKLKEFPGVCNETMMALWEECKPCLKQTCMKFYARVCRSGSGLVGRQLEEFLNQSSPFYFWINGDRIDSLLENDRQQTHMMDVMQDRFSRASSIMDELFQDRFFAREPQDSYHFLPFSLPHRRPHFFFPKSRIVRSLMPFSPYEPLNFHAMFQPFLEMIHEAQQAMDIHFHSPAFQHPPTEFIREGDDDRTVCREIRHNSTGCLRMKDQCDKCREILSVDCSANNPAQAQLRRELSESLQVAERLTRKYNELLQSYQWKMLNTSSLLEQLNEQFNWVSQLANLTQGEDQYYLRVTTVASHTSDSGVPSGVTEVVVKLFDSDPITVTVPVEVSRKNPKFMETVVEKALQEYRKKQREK
Description: as §1

[3] = Non-clinical toxicity, weekly administration in rats; assay type: in vivo, Sprague-Dawley rats
Description: This finding most likely reflects a slight antigenic stimulation by AB-16B5 in these 2 regional lymph nodes.

[4] = test system: frozen tissues from human; test: Tissue cross-reactivity study, human tissues; assay type: binding; settings: human tissue panel, 2 and 10 μg/mL
Protocol: (§2) In addition, a tissue cross-reactivity study was conducted to determine the potential cross-reactivity of AB-16B5 with frozen tissues from human, Rhesus monkey, and Sprague-Dawley rat tissues.

[5] = test system: frozen tissues from Rhesus monkey; test: Tissue cross-reactivity study, Rhesus monkey tissues; assay type: binding; settings: Rhesus monkey tissue panel, 2 and 10 μg/mL
Protocol: as §2

[6] = test system: frozen Sprague-Dawley rat tissues; test: Tissue cross-reactivity study, Sprague-Dawley rat tissues; assay type: binding; settings: Sprague-Dawley rat tissue panel, 2 and 10 μg/mL
Protocol: as §2

[7] = Phase I study: detection of AB-16B5 in tumor biopsies; assay type: in vivo, human; settings: for Detection of AB-16B5 in Post-Treatment Biopsy: after Cycle 2 Day 15
Description: (§3) Tumor biopsies were collected during the standard dose escalation to investigate the presence of AB-16B5 within the tumor. A total of 4 pre-treatment and 5 post-treatment tumor biopsies were suitable for analysis. These post-treatment tumor biopsies were collected following dosing on Cycle 2 Day 15 (between Cycle 2 Day 15 and Cycle 2 Day 18). The biopsy sites were liver (n=2), lymph node (n=2), bladder, skin and vulva.

E-cadherin = test: Phase I study: immunohistochemistry on paired tumor biopsies, E-cadherin; assay type: in vivo, human
Protocol: (§4) Immunohistochemistry studies were conducted on paired tumor biopsies to determine if the treatment with AB-16B5 was associated with a reacquisition of an epithelial phenotype.

vimentin = test: Phase I study: immunohistochemistry on paired tumor biopsies, vimentin; assay type: in vivo, human; settings: Subject 007, advanced gastric cancer
Protocol: as §4

tumor biopsies = test: Phase I study: necrosis in paired tumor biopsies; assay type: in vivo, human
Protocol: as §3, §4

[8] = Phase I study AB-16B5-101: plasma pharmacokinetics (non-compartmental analysis); assay type: in vivo, human; settings: for AUC 0-t / Cmax / Thalf: mean; for AUC 0-t / Cmax / Thalf / Tmax: plasma; for Tmax: median;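 as to AUC 0-t: ng·h/mL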
Description: Plasma PK parameters for AB-16B5 were derived from the concentration-time profiles following the first dose of Cycle 1 and the first dose of Cycle 2 using a non-compartmental analysis (NCA) with Phoenix WinNonlin.

[9] = test system: CA 15-3, CA-125, CA 19-9, CEA, LDH and PSA; test: Phase I study: circulating tumor biomarkers; assay type: in vivo, human
Protocol: Several well-established circulating biomarkers were evaluated to monitor the response to therapy. They included CA 15-3, CA-125, CA 19-9, CEA, LDH and PSA.

[10] = Phase I study AB-16B5-101: safety and tolerability
Protocol: The dose escalation was performed using 2 dose escalation schemes; the accelerated dose escalation scheme and the standard dose escalation scheme. Only 1 subject was enrolled in each of the first 2 cohorts as per protocol (accelerated dose escalation scheme).
Subjects received AB-16B5 by a 60-minute IV infusion once weekly on Days 1, 8 and 15 of each cycle of treatment.

[11] = Subject 012, Breast, biopsy site Skin
[12] = Subject 013, Prostate, biopsy site Bladder

AB-16B5: humanized IgG2 monoclonal antibody targeting sCLU for the inhibition of cancer-associated EMT; light chain SEQ ID NO:11, heavy chain SEQ ID NO:12
systemic exposure over 24 hours versus dose [1]: increased with increasing dose levels in a dose proportional manner | increase in systemic exposure following repeated dosing ([1]; Day 1 to Day 26): ~70% | peak serum AB-16B5 concentrations ([1]; infusion, single and repeat-dose): reached shortly after the start of infusion | systemic exposure versus dose ([2]; monkeys): increased with increasing dose levels in a generally greater than dose proportional manner | peak serum AB-16B5 concentrations ([2]; monkeys, infusion, single and repeat-dose): reached shortly after the start of infusion | systemic exposure once weekly versus twice weekly ([2]; monkeys, repeated dosing): no notable differences in systemic exposure | accumulation for AUC0-72 ([2]; repeated dosing): a lower extent of accumulation was observed | drug accumulation in terms of Cmax ([2]; repeated dosing): no evidence of drug accumulation | sCLU serum concentrations following dosing (sCLU): decreased significantly | incidence of minimal lymphoid hypercellularity, mandibular lymph node ([3]; rat, in vivo): 1/20 | incidence of minimal lymphoid hypercellularity, mesenteric lymph node ([3]; rat, in vivo): 2/20 | reversibility of lymphoid hypercellularity ([3]; rat, in vivo): complete reversibility | treatment-related clinical signs, changes in body weight, food consumption, ophthalmology, clinical pathology, organ weights ([3]; rat, in vivo): did not result in any treatment-related clinical signs | treatment-related macroscopic changes ([3]; rat, in vivo): no treatment-related macroscopic changes | No Observable Adverse Effect Level (NOAEL) ([3]; rats, weekly administration): 100 mg/kg/dose | AB-16B5 staining of tissue elements [4]: observed in a number of tissue elements | membrane staining [4]: no membrane staining was observed | AB-16B5 staining of tissue elements [5]: observed in a number of tissue elements | membrane staining [5]: no membrane staining was observed | AB-16B5 staining of tissue elements [6]: observed in a number of tissue elements | membrane staining [6]: no membrane staining was observed | presence of AB-16B5 in post-treatment tumor biopsies ([7]; 5 post-treatment tumor biopsies): confirmed in all post-treatment tumor biopsies analyzed; also recorded: confirmed in all 5 pts | Detection of AB-16B5 in Post-Treatment Biopsy ([7]; Subject 009, Lung, biopsy site Liver): Positive | Detection of AB-16B5 in Post-Treatment Biopsy ([7]; Subject 010, Colorectal, biopsy site Liver): Positive | Detection of AB-16B5 in Post-Treatment Biopsy [7, 11]: Positive | Detection of AB-16B5 in Post-Treatment Biopsy [7, 12]: Positive | Detection of AB-16B5 in Post-Treatment Biopsy ([7]; Subject 015, Ovarian, biopsy site Lymph node): Positive | E-cadherin Expression in Post-Treatment (E-cadherin; Subject 006, Breast, biopsy site Skin): Increase | E-cadherin Expression in Post-Treatment (E-cadherin; Subject 007, Gastric, biopsy site Gastric): Increase | E-cadherin Expression in Post-Treatment (E-cadherin; [11]): Decrease | E-cadherin Expression in Post-Treatment (E-cadherin; [12]): No change | patients with increased E-cadherin expression after treatment (E-cadherin; paired tumor biopsies): 2 pts | vimentin expression after treatment (vimentin): loss of vimentin expression | Necrosis Post-Treatment (tumor biopsies; Subject 006, Breast, biopsy site Skin (pre-treatment 0%)): 10% | Necrosis Post-Treatment (tumor biopsies; Subject 007, Gastric, biopsy site Gastric (pre-treatment 0%)): 0% | Necrosis Post-Treatment (tumor biopsies; Subject 012, Breast, biopsy site Skin (pre-treatment 0%)): 5% | Necrosis Post-Treatment (tumor biopsies; Subject 013, Prostate, biopsy site Bladder (pre-treatment 0%)): 10% | AUC 0-t ([8]; Cycle 1, 1.5 mg/kg (N = 1)): 230,321 ng * h/mL | Cmax ([8]; Cycle 1, 1.5 mg/kg (N = 1)): 17,958 ng/mL | Thalf ([8]; Cycle 1, 1.5 mg/kg (N = 1)): 9.35 h | Tmax ([8]; Cycle 1, 1.5 mg/kg (N = 1)): 1.17 h | AUC 0-t ([8]; Cycle 1, 3.0 mg/kg (N = 1)): 645,602 ng * h/mL | Cmax ([8]; Cycle 1, 3.0 mg/kg (N = 1)): 50,736 ng/mL | Thalf ([8]; Cycle 1, 3.0 mg/kg (N = 1)): 7.39 h | Tmax ([8]; Cycle 1, 3.0 mg/kg (N = 1)): 1.08 h | AUC 0-t ([8]; Cycle 1, 6.0 mg/kg (N = 3)): 1,357,773 ng * h/mL | Cmax ([8]; Cycle 1, 6.0 mg/kg (N = 3)): 117,663 ng/mL | Thalf ([8]; Cycle 1, 6.0 mg/kg (N = 3)): 6.99 h | Tmax ([8]; Cycle 1, 6.0 mg/kg (N = 3)): 1.00 h | AUC 0-t ([8]; Cycle 1, 9.0 mg/kg (N = 3)): 2,083,091 ng * h/mL | Cmax ([8]; Cycle 1, 9.0 mg/kg (N = 3)): 162,103 ng/mL | Thalf ([8]; Cycle 1, 9.0 mg/kg (N = 3)): 10.78 h | Tmax ([8]; Cycle 1, 9.0 mg/kg (N = 3)): 2.00 h | AUC 0-t ([8]; Cycle 1, 12.0 mg/kg (N = 7)): 4,045,786 ng * h/mL | Cmax ([8]; Cycle 1, 12.0 mg/kg (N = 7)): 256,977 ng/mL | Thalf ([8]; Cycle 1, 12.0 mg/kg (N = 7)): 11.99 h | Tmax ([8]; Cycle 1, 12.0 mg/kg (N = 7)): 1.12 h | increase of mean Cmax and AUC0-t with the dose ([8]; Cycle 1, dose range of 3.0 to 12.0 mg/kg): dose proportional | AUC 0-t ([8]; Cycle 2, 1.5 mg/kg (N = 1)): 188,584 ng * h/mL | Cmax ([8]; Cycle 2, 1.5 mg/kg (N = 1)): 15,662 ng/mL | Thalf ([8]; Cycle 2, 1.5 mg/kg (N = 1)): 7.97 h | Tmax ([8]; Cycle 2, 1.5 mg/kg (N = 1)): 1.00 h | AUC 0-t ([8]; Cycle 2, 3.0 mg/kg (N = 1)): 688,934 ng * h/mL | Cmax ([8]; Cycle 2, 3.0 mg/kg (N = 1)): 61,466 ng/mL | Thalf ([8]; Cycle 2, 3.0 mg/kg (N = 1)): 6.82 h | Tmax ([8]; Cycle 2, 3.0 mg/kg (N = 1)): 1.05 h | AUC 0-t ([8]; Cycle 2, 6.0 mg/kg (N = 3)): 1,351,156 ng * h/mL | Cmax ([8]; Cycle 2, 6.0 mg/kg (N = 3)): 120,466 ng/mL | Thalf ([8]; Cycle 2, 6.0 mg/kg (N = 3)): 7.70 h | Tmax ([8]; Cycle 2, 6.0 mg/kg (N = 3)): 1.03 h | AUC 0-t ([8]; Cycle 2, 9.0 mg/kg (N = 3)): 2,459,988 ng * h/mL | Cmax ([8]; Cycle 2, 9.0 mg/kg (N = 3)): 163,840 ng/mL | Thalf ([8]; Cycle 2, 9.0 mg/kg (N = 3)): 13.75 h | Tmax ([8]; Cycle 2, 9.0 mg/kg (N = 3)): 1.08 h | AUC 0-t ([8]; Cycle 2, 12.0 mg/kg (N = 7)): 4,147,243 ng * h/mL | Cmax ([8]; Cycle 2, 12.0 mg/kg (N = 7)): 230,268 ng/mL | Thalf ([8]; Cycle 2, 12.0 mg/kg (N = 7)): 21.04 h | Tmax ([8]; Cycle 2, 12.0 mg/kg (N = 7)): 1.04 h | increase of mean Cmax and AUC0-t with the dose ([8]; Cycle 2, dose range of 3.0 to 12.0 mg/kg): dose proportional | systemic exposure versus dose ([8]; across all dose levels): increased in a dose proportional manner | accumulation of AB-16B5 ([8]; between Cycle 1 and Cycle 2): No significant accumulation | level of CEA ([9]; circulating): remained stable or decreased in few patients | tumor biomarker levels ([9]; circulating CA 15-3, CA-125, CA 19-9, CEA, LDH, PSA, correlated with disease progression): increased over time | dose-related trend in the incidence of AEs ([10]; 1.5 to 12.0 mg/kg): no dose-related trend | dose-limiting toxicity ([10]; 1.5 to 12.0 mg/kg once weekly, 15 subjects): No dose-limiting toxicity was observed; also recorded: No dose-limiting toxicities were identified | subjects reporting SAEs ([10]; 5 of 15 subjects): 33% | AEs of Grade 3 to 5 ([10]; 15 subjects): 12 | number of SAEs ([10]; 15 subjects): 6 and 5 | subjects reporting AEs of Grade 3 to 5 ([10]; 15 subjects): 8 subjects | total AEs reported ([10]; 15 subjects, all causalities): 167 | safety and tolerability ([10]; 60-minute IV weekly infusion, doses up to 12 mg/kg): safe and well tolerated | AEs of Grade 3 to 5 related to AB-16B5 ([10]; Grade 3 infusion related reaction and Grade 3 rash): 2 | deaths ([10]; Subjects 004 and 014, associated with progression of the disease): Two deaths were reported | grade of drug-related AEs ([10]; in vivo): mainly of Grade 1 or 2 | most frequently reported AEs (all causalities) ([10]; in vivo): nausea, abdominal pain, back pain, vomiting, chills, dyspnea, constipation and pruritus | most frequently reported AEs related to AB-16B5 ([10]; in vivo): nausea, pruritus, headache and rash | relation of SAEs to AB-16B5 ([10]; in vivo): All SAEs were considered unrelated to AB-16B5; also recorded: none of which were judged related to the study treatment | AEs related (possibly, probably or definitely) to AB-16B5 ([10]; out of 167 AEs): 68 | subjects who discontinued the study due to an adverse event ([10]; two subjects (004 and 011)): 13%
